Results on 1 molecule are retold here after US20070212341A1, “Method for Preparing Active Kinases Containing Ph Domains” (priority 2004, published 2007).

For this data set, the system named is histone 2B. The data set is described as follows: Kinase activity measurement (histone 2B phosphorylation, [33P]ATP flashplate). Type of data set: biochemical. The method, then: Another possibility of detecting the enzymic activity of Akt is that of incubating 100 ng of Akt, at 30° C. for 80 min, with 100 ng of histone 2B in a buffer composed of 50 mM Hepes (pH 7.5), 3 mM MgCl2 and 3 mM MnCl2, 3 μM sodium vanadate, 1 mM DTT, 1% DMSO, 100 nM ATP and 0.16 nM [^33P]-ATP. After stopping the reaction with phosphoric acid and washing with water, the incorporated cpm [counts per minute] are then determined, in a flashplate (NEN) in a Wallac Trilux measuring instrument, as a measure of the phosphorylation of the histone 2B. In this measuring instrument, the quantity of light which was generated from the radioactive decay by the scintillation gel present in the wells is measured quantitatively. It is a direct measure of the degree of phosphorylation of the Akt substrate employed.
In order to measure the kinase activity of truncated Akt1 (Akt1ΔPH) as well as of native Akt1, in each case 100 ng of Akt were incubated, at 30° C. for 80 min, with 100 ng of histone 2B in a buffer comprising 50 mM Hepes, pH 7.5, 3 mM MgCl2 and 3 mM MnCl2, 3 μM sodium vanadate, 1 mM DTT, 1% DMSO, 100 nM ATP and 0.16 nM [^33P]ATP. After the reaction had been stopped with phosphoric acid and the wells had been washed with water, the incorporated […], in a Wallac Trilux measuring instrument, as a measure of the histone 2B phosphorylation. In this measuring instrument, the quantity of light which was generated from the radioactive decay by the scintillation gel which was present in the wells was measured quantitatively. It is a direct measure of the degree of the phosphorylation of the Akt substrate employed.
Commercially obtainable wild-type Akt1 protein (Upstate Biochemicals, Charlottsville, Va., USA), which was likewise expressed in SF9 cells using the baculovirus system and then purified, was also used (results of the activity measurement in FIG. 1a, left-hand column).
The activity of an Akt derivative, which was expressed using the present method and obtained as an active kinase derivative, was compared with the activity of a commercially obtainable Akt1 enzyme (Upstate, Charlottsville, Va., USA). The activity of the commercially obtainable enzyme was obtained by expressing the enzyme, which contained the PH domain, in the baculovirus system and then purifying it. The enzyme was subsequently incubated with PDK1 in the presence of phosphatidylinositol […] lipid vesicles in order to phosphorylate Akt1 at threonine 308. After that, the activated Akt enzyme was separated chromatographically in order to separate it off from the activating PDK1 kinase. The enzyme activities of the two kinases were measured as described in Ex. 4.

The mark [1] stands for this setting: FIG. 1a, 100 ng Akt, 100 ng histone 2B, 30° C., 80 min, expressed in SF9 cells.

B1: PDK1-activated Akt1ΔPH: truncated Akt1 protein (amino acids 107-481, GST tag) without PH domain, activated by coexpression with truncated PDK1 in SF9 cells (protein)
chain: ADGLKKQEEEEMDFRSGSPSDNSGAEEMEVSLAKPKHRVTMNEFEYLKLLGKGTFGKVILVKEKATGRYYAMKILKKEVIVAKDEVAHTLTENRVLQNSRHPFLTALKYSFQTHDRLCFVMEYANGGELFFHLSRERVFSEDRARFYGAEIVSALDYLHSEKNVVYRDLKLENLMLDKDGHIKITDFGLCKEGIKDGATMKTFCGTPEYLAPEVLEDNDYGRAVDWWGLGVVMYEMMCGRLPFYNQDHEKLFELILMEEIRFPRTLGPEAKSLLSGLLKKDPKQRLGGGSEDAKEIMQHRFFAGIVWQHVYEKKLSPPFKPQVTSETDTRYFDEEFTAQMITITPPDQDDSMECVDSERRPHFPQFSYSASGTA
modifications: phosphorylated at threonine 308 and serine 473, as the filing says of the active form
As for B1, the “kinase activity compared with commercially obtainable native Akt1 activated by subsequent phosphorylation by PDK1 in the presence of lipid vesicles” value (Ex. 5, measured as described in Ex. 4) was “at least the same activity”. Moreover, under setting [1], the “kinase activity (histone 2B phosphorylation) compared with Akt1ΔPH not activated by coinfection with PDK1-encoding baculoviruses” value is “markedly higher activity”; the “kinase activity (histone 2B phosphorylation) compared with Akt kinase derivative containing the PH domain with threonine 308 and serine 473 replaced with aspartic acid” value was “markedly higher activity”. For the same molecule, where the note is “FIG. 1b, Ex. 4b, measured as in Ex. 4a”, the “kinase activity (histone 2B phosphorylation) compared with commercially obtainable wild-type Akt1 not activated by coinfection with PDK1-encoding baculoviruses” value is “markedly higher activity”.
